B1: library; numbered along this chain (parent)
chain: MRKPRAAVGSGHRKQAASQEGRQKHAKNNSQAKPSACDGLARQPEEVVLQASVSSYHLFRDVAEVTAFRGSLLSWYDQEKRDLPWRRRAEDEMDLDRRAYAVWVSEVMLQQTQVATVINYYTGWMQKWPTLQDLASASLEEVNQLWAGLGYYSRGRRLQEGARKVVEELGGHMPRTAETLQQLLPGVGRYTAGAIASIAFGQATGVVDGNVARVLCRVRAIGADPSSTLVSQQLWGLAQQLVDPARPGDFNQAAMELGATVCTPQRPLCSQCPVESLCRARQRVEQEQLLASGSLSGSPDVEECAPNTGQCHLCLPPSEPWDQTLGVVNFPRKASRKPPREESSATCVLEQPGALGAQILLVQRPNSGLLAGLWEFPSVTWEPSEQLQRKALLQELQRWAGPLPATHLRHLGEVVHTFSHIKLTYQVYGLALEGQTPVTTVPPGARWLTQEEFHTAAVSTAMKKVFRVYQGQQPGTCMGSKRSQVSSPCSRKKPRMGQQVLDNFFRSHISTDAHSLNSAAQ

Variants of: B1
Assay: 8OG:A repair function score (normalized; synonymous = 0, nonsense = -1) (normalized log-likelihood score); higher = more repair activity (WT-like)
Conditions: with 8OG:A DNA repair reporter (GFP) in HEK-293 MUTYH KO cells
Outline: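 Per-tile Rosace fitness scores were converted to a normalized repair function score anchored on synonymous and nonsense distributions. That scale puts synonymous medians at 0 and nonsense medians at -1. Variants with starting counts under 300 counts per million were discarded. Input came from sorting viable mCherry+ MUTYH knockout HEK-293 cells, carrying lentiviral MUTYH cDNA NNN codon-scan libraries in 10 pg/ml doxycycline and an 8OG:A GFP repair reporter, into GFP+ and GFP− bins at 72 h, three replicates per tile, followed by tile amplicon sequencing.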
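Note: cells sorted at 72 h after reporter transfection.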

Variant	8OG:A repair function score
P437M	-0.528
D512S	-0.0201
W103C	-0.655
L361G	-0.729
L361I	-0.107
A41G	-0.0656
D243A	-0.387
M125L	-0.161
M462G	-0.215
R98Y	-0.0815
L325D	-0.204
S292E	-0.0389
H172A	-0.0729
M108P	-1.2
M108R	-1.2
D322W	-0.0845
V441W	-0.278
F466D	-0.872
F466E	-0.52
I118G	-0.107
Q132I	-0.0124

Variant	8OG:A repair function score
Q132Y	-0.125
E285C	-0.00692
L403R	-0.392
F250T	-0.65
F250C	-0.435
C278E	-0.92
N366S	0.0203
M478F	0.0278
M478W	0.0205
R482M	-0.00466
R154W	-1.03
R154I	-0.971
I421T	-0.299
H312Q	-0.0663
S105T	-0.804
S153G	-0.237
S153Y	-0.143
W399T	-0.296
W399I	-0.15
F376W	-0.757
P244G	-0.385

Variant	8OG:A repair function score
P244H	-0.418
P317T	-0.0225
F200R	-0.97
L184P	-1.21
E287G	-0.0256
A89M	0.00504
L411M	-0.193
F418A	-0.333
C314S	-0.593
Q181N	-0.118
A520K	0.00969
V48C	0.0424
S459I	-0.53
L360E	-1.15
A67S	0.00133
I509Y	-0.0704
P352L	-0.0502
E167G	0.00335
P267R	-1.04
P443W	-0.309
E382N	0.0107

Variant	8OG:A repair function score
W381R	-0.0405
S138A	-0.0766
A220P	-0.978
G188D	-1.09
S231F	-0.24
E79Y	-0.00762
G326T	-0.298
A456K	-0.248
Y152C	-0.782
L95I	-0.0112
A400H	0.179
P247N	-1
L40D	0.21
L40Q	0.0733
E141S	-0.0511
Q126P	-0.376
Q126D	0.00176
Q126Y	-0.055
L73H	-0.344
D77P	-0.464
V328F	-0.215

From the supplement of paper PMC11908140
